From US20230060095A1 (Regeneron, published 2023)
Substitutions are numbered along the chain they refer to. Blank lines part the entries; values can stand above or below the binder they belong to.

How the values were obtained:
[1] = molecular target: HLA-A2/PRAME (425-433) on HLA-A2*01 HEK293T cells pulsed with PRAME 425-433 peptide (human); assay: cell-based or functional assay
[2] = molecular target: T1, PRAME peptide on HLA-A*02:01 (human); assay: multimer staining
T1 peptide: SLLQHLIGL

peptide on HLA-A*02:01 = molecular target: T2, peptide on HLA-A*02:01 (human); assay: activation reporter or marker
T2 peptide: SLLMWITQC

[3] = molecular target: T3, soluble HLA:A2:PRAME (425-433) tetramer (human); assay: flow cytometry, soluble pMHC tetramer on CHO cells expressing the TCR;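 also: CHO cells transfected with vectors encoding full-length paired TCR alpha and beta chains, stained with PRAME/HLA tetramer and read by flow cytometry, each value reflects one listed TCR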
T3 construct: Commercial tetramer (MBL International); construct limits, biotin tag and streptavidin/fluorophore not described; also called PRAME/HLA tetramer reagent; PRAME (425-433)/HLA-A2

B1: PN42365 (TCR, V domains shown)
V domain 1: TQLLEQSPQFLSIQEGENLTVYCNSSSVFSSLQWYRQEPGEGPVLLVTVVTGGEVKKLKRLTFQFGDARKDSSLHITAAQPGDTGLYLCAANGGSQGNLIFGKGTKLSVKP
V domain 2: DAGVTQSPTHLIKTRGQQVTLRCSPKSGHDTVSWYQQALGQGPQFIFQYYEEEERQRGNFPDRFSGHQFPNYSSELNVNALLLGDSALYLCASSLQDYGYTFGSGTRLTVV
EC50 (µM) of peptide, AP1 luciferase reporter in Jurkat cells expressing the TCR [1]: 0.0159 µM | binding result [2]: recognises | binding result (peptide on HLA-A*02:01): no recognition | Cell Frequency ≥1000 MFI, ≥1% (% tetramer positive cells in the Ag+ gate) [3]: 95.8%

B2: PN42879 (TCR, V domains shown)
V domain 1: TQLLEQSPQFLSIQEGENLTVYCNSSSVFSSLQWYRQEPGEGPVLLVTVVTGGEVKKLKRLTFQFGDARKDSSLHITAAQPGDTGLYLCAGEDFGNEKLTFGTGTRLTIIP
V domain 2: B1 V domain 2 with L95W, Q96A
binding result (peptide on HLA-A*02:01): no recognition | Cell Frequency ≥1000 MFI, ≥1% (% tetramer positive cells in the Ag+ gate) [3]: 93.1%

B3: PN42378 (TCR, V domains shown)
V domain 1: DAKTTQPNSMESNEEEPVHLPCNHSTISGTDYIHWYRQLPSQGPEYVIHGLTSNVNNRMASLAIAEDRKSSTLILHRSTLRDAAVYYCILRPDSWGKFQFGAGTQVVVTP
V domain 2: B1 V domain 2
notes: stained with anti-mouse TCR constant region antibody H57-597) and full-length chains were expressed on CHO cells
binding result [2]: recognises | Cell Frequency ≥1000 MFI, ≥1% (% tetramer positive cells in the Ag+ gate) [3]: 77.5%

B4: PN42483 (TCR, V domains shown)
V domain 1: B1 V domain 1 with A91G, N92D
V domain 2: EAQVTQSPRYLITVTGKKLTVTCSQNMNHEYMSWYRQDPGLGLRQIYYSMNVEVTDKGDVPEGYKVSRKEKRNFPLILESPSPNQTSLYFCASSLGGADEKLFFGSGTQLSVL
binding result (peptide on HLA-A*02:01): no recognition | Cell Frequency ≥1000 MFI, ≥1% (% tetramer positive cells in the Ag+ gate) [3]: 86.4%

B5: PN42776 (TCR, V domains shown)
V domain 1: B3 V domain 1
V domain 2: B1 V domain 2 with L95W, Q96T
notes: as for B3
binding result [2]: recognises | Cell Frequency ≥1000 MFI, ≥1% (% tetramer positive cells in the Ag+ gate) [3]: 60.2%

B7: PN42840 (TCR, V domains shown)
V domain 1: B1 V domain 1 with A91E, N92G
V domain 2: B1 V domain 2 with L95W, Q96T
EC50 (µM) of peptide, AP1 luciferase reporter in Jurkat cells expressing the TCR [1]: 0.0309 µM | binding result [2]: recognises | binding result (peptide on HLA-A*02:01): no recognition | Cell Frequency ≥1000 MFI, ≥1% (% tetramer positive cells in the Ag+ gate) [3]: 52.5%

B9: PN42689 (TCR, V domains shown)
V domain 1: B1 V domain 1 with A91E, N92D
V domain 2: B1 V domain 2 with Q96S
EC50 (µM) of peptide, AP1 luciferase reporter in Jurkat cells expressing the TCR [1]: 0.0095 µM | binding result [2]: recognises | binding result (peptide on HLA-A*02:01): no recognition | Cell Frequency ≥1000 MFI, ≥1% (% tetramer positive cells in the Ag+ gate) [3]: 4.92%

B10: PN42386 (TCR, V domains shown)
V domain 1: B1 V domain 1 with A91T
V domain 2: B1 V domain 2
EC50 (µM) of peptide, AP1 luciferase reporter in Jurkat cells expressing the TCR [1]: 0.0271 µM | binding result [2]: recognises | binding result (peptide on HLA-A*02:01): no recognition | Cell Frequency ≥1000 MFI, ≥1% (% tetramer positive cells in the Ag+ gate) [3]: 82.2%

B11: PN42610 (TCR, V domains shown)
V domain 1: QKEVEQNSGPLSVPEGAIASLNCTYSDRGSQSFFWYRQYSGKSPELIMSIYSNGDKEDGRFTAQLNKASQYVSLLIRDSQPSDSATYLCAGNYGQNFVFGPGTRLSVLP
V domain 2: AAGVIQSPRHLIKEKRETATLKCYPIPRHDTVYWYQQGPGQDPQFLISFYEKMQSDKGSIPDRFSAQQFSDYHSELNMSSLELGDSALYFCASSIGLNQPQHFGDGTRLSIL
binding result (peptide on HLA-A*02:01): no recognition | Cell Frequency ≥1000 MFI, ≥1% (% tetramer positive cells in the Ag+ gate) [3]: 6.08%

B12: PN42780 (TCR, V domains shown)
V domain 1: TQLLEQSPQFLSIQEGENLTVYCNSSSVFSSLQWYRQEPGEGPVLLVTVVTGGEVKKLKRLTFQFGDARKDSSLHITAAQPGDTGLYLCAGGTSGTYKYIFGTGTRLKVLA
V domain 2: EAQVTQNPRYLITVTGKKLTVTCSQNMNHEYMSWYRQDPGLGLRQIYYSMNVEVTDKGDVPEGYKVSRKEKRNFPLILESPSPNQTSLYFCASSPGTPNYGYTFGSGTRLTVV
EC50 (µM) of peptide, AP1 luciferase reporter in Jurkat cells expressing the TCR [1]: 1.25 µM | binding result [2]: recognises | binding result (peptide on HLA-A*02:01): no recognition | Cell Frequency ≥1000 MFI, ≥1% (% tetramer positive cells in the Ag+ gate) [3]: 4.89%

B13: PN42706 (TCR, V domains shown)
V domain 1: GIQVEQSPPDLILQEGANSTLRCNFSDSVNNLQWFHQNPWGQLINLFYIPSGTKQNGRLSATTVATERYSLLYISSSQTTDSGVYFCAVEASGTYKYIFGTGTRLKVLA
V domain 2: B12 V domain 2 with P95W, P98G, N99G
EC50 (µM) of peptide, AP1 luciferase reporter in Jurkat cells expressing the TCR [1]: 0.727 µM | binding result [2]: recognises | binding result (peptide on HLA-A*02:01): no recognition | Cell Frequency ≥1000 MFI, ≥1% (% tetramer positive cells in the Ag+ gate) [3]: 24.7%

B15: PN42442 (TCR, V domains shown)
V domain 1: B12 V domain 1
V domain 2: B12 V domain 2 with P98A
EC50 (µM) of peptide, AP1 luciferase reporter in Jurkat cells expressing the TCR [1]: 0.232 µM | binding result [2]: recognises | binding result (peptide on HLA-A*02:01): no recognition | Cell Frequency ≥1000 MFI, ≥1% (% tetramer positive cells in the Ag+ gate) [3]: 61.3%

B17: PN42476 (TCR)
TCR alpha: B3 V domain 1
TCR beta: EAQVTQSPRYLITVTGKKLTVTCSQNMDHEYMSWYRQDPGLGLRQIYYSMNVEVTDKGDVPEGYKVPRKEKRSFPLILESPCCSQTPLYLCASSLGGVDERLSFGSGTQLSVL
notes: as for B3
binding result [2]: recognises | Cell Frequency ≥1000 MFI, ≥1% (% tetramer positive cells in the Ag+ gate) [3]: 54.2%

B18: PN42561 (TCR, V domains shown)
V domain 1: DAKTTQPNSMESNEEEPVHLPCNHSTISGTDYIHWYRQLPSQGPEYVIHGLTSNVNNRMASLAIAEDRKSSTLILHRATLRDAAVYYCILRDGTGNQFYFGTGTSLTVIP
V domain 2: EAQVTQNPRYLITVTGKKLTVTCSQNMNHEYMSWYRQDPGLGLRQIYYSMNVEVTDKGDVPEGYKVSRKEKRNFPLILESPSPNQTSLYFCASSLWTGGGYTFGSGTRLTVV
EC50 (µM) of peptide, AP1 luciferase reporter in Jurkat cells expressing the TCR [1]: 0.0137 µM | binding result [2]: recognises | binding result (peptide on HLA-A*02:01): no recognition | Cell Frequency ≥1000 MFI, ≥1% (% tetramer positive cells in the Ag+ gate) [3]: 80.2%

B21: PN42677 (TCR, V domains shown)
V domain 1: B18 V domain 1
V domain 2: B18 V domain 2 with L95S, W96T, T97G, G98Y, G99Y
binding result (peptide on HLA-A*02:01): no recognition | Cell Frequency ≥1000 MFI, ≥1% (% tetramer positive cells in the Ag+ gate) [3]: 25.3%

Continued, values first:

binding result [2]: recognises | Cell Frequency ≥1000 MFI, ≥1% (% tetramer positive cells in the Ag+ gate) [3]: 53%
B6: PN42455 (TCR, V domains shown)
V domain 1: B3 V domain 1
V domain 2: B1 V domain 2 with Q96V
notes: as for B3

EC50 (µM) of peptide, AP1 luciferase reporter in Jurkat cells expressing the TCR [1]: 0.00242 µM | binding result [2]: recognises | binding result (peptide on HLA-A*02:01): no recognition | Cell Frequency ≥1000 MFI, ≥1% (% tetramer positive cells in the Ag+ gate) [3]: 90.3%
B8: PN42498 (TCR, V domains shown)
V domain 1: B1 V domain 1 with A91G, N92D
V domain 2: B1 V domain 2 with Q96V

EC50 (µM) of peptide, AP1 luciferase reporter in Jurkat cells expressing the TCR [1]: 0.0281 µM | binding result [2]: recognises | binding result (peptide on HLA-A*02:01): no recognition | Cell Frequency ≥1000 MFI, ≥1% (% tetramer positive cells in the Ag+ gate) [3]: 92%
B14: PN42562 (TCR, V domains shown)
V domain 1: B12 V domain 1 with T93P
V domain 2: B12 V domain 2

binding result [2]: recognises | Cell Frequency ≥1000 MFI, ≥1% (% tetramer positive cells in the Ag+ gate) [3]: 40.8%
B16: PN42750 (TCR, V domains shown)
V domain 1: B3 V domain 1
V domain 2: DVKVTQSSRYLVKRTGEKVFLECVQDMDHENMFWYRQDPGLGLRLIYFSYDVKMKEKGDIPEGYSVSREKKERFSLILESASTNQTSMYLCASSTVRQGNYGYTFGSGTRLTVV
notes: as for B3

binding result (peptide on HLA-A*02:01): no recognition | Cell Frequency ≥1000 MFI, ≥1% (% tetramer positive cells in the Ag+ gate) [3]: 11.1%
B19: PN42683 (TCR, V domains shown)
V domain 1: DAKTTQPNSMESNEEEPVHLPCNHSTISGTDYIHWYRQLPSQGPEYVIHGLTSNVNNRMASLAIAEDRKSSTLILHRATLRDAAVYYCILRDREYGNKLVFGAGTILRVKS
V domain 2: B18 V domain 2

binding result [2]: recognises | binding result (peptide on HLA-A*02:01): no recognition | Cell Frequency ≥1000 MFI, ≥1% (% tetramer positive cells in the Ag+ gate) [3]: 27%
B20: PN42655 (TCR, V domains shown)
V domain 1: B3 V domain 1
V domain 2: B18 V domain 2
notes: as for B3

binding result (peptide on HLA-A*02:01): no recognition | Cell Frequency ≥1000 MFI, ≥1% (% tetramer positive cells in the Ag+ gate) [3]: 20.1%
B22: PN42654 (TCR, V domains shown)
V domain 1: B18 V domain 1 with T94I
V domain 2: B18 V domain 2
